Test results: publication PMC12485084

Target: 3xFLAG-TurboID-CaM C-lobe (human)
Assay: proximity labelling

3xFLAG-WT human TRPA1 (Transient Receptor Potential Ankyrin subtype 1), sequence (O75762 whole entry): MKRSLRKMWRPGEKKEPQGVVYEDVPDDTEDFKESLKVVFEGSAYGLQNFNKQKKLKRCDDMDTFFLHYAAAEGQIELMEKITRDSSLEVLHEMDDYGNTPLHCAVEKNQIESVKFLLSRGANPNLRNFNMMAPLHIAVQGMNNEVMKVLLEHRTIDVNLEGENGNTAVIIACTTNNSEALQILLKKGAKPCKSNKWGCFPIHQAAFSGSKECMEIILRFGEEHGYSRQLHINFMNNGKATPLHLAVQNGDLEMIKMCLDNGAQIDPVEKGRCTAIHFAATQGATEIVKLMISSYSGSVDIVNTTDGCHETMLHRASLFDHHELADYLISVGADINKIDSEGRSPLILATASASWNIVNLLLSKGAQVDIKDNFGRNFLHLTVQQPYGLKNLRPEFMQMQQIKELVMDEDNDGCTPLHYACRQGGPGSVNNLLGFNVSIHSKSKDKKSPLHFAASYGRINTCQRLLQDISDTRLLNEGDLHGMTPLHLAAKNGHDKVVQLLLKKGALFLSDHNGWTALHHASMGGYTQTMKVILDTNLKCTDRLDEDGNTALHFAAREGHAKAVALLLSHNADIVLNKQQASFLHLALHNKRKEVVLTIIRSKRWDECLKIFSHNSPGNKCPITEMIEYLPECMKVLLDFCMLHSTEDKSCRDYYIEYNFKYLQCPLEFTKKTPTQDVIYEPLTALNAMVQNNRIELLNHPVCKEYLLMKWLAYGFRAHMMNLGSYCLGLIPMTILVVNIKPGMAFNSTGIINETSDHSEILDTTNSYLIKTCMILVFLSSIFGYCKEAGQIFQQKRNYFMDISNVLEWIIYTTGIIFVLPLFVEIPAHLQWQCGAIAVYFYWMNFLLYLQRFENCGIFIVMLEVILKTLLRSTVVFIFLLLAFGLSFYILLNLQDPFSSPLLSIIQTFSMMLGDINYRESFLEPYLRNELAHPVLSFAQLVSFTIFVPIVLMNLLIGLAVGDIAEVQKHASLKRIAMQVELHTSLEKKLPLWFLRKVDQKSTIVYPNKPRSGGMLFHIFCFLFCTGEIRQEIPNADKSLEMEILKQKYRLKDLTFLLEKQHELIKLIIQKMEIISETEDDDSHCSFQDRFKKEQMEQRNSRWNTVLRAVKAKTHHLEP

With “3xFLAG-WT human TRPA1 (Transient Receptor Potential Ankyrin subtype 1) (from UniProt O75762 1-1119) (natural protein)” the percent increase in biotinylation with TurboID-CaM C-lobe versus free TurboID was 40%.
